Assay results taken from the nanobody polyreactivity screen of Harvey et al. (2022).

Assay: yeast display, Sf9 membrane polyspecificity reagent, FACS + sequencing; frameworks hold sequencing errors
Procedure, shortened: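 Polyreactivity labels are assigned by the sorting gate from which each nanobody was recovered. The gates were low and high (top ~1%), set on anti-HA fluorescence for expression and streptavidin fluorescence for reagent binding. Before sorting, galactose-induced (36–48 hours) yeast display cells were stained for 1 hour at 4 °C with 10% biotinylated, detergent-solubilized Sf9 membrane reagent.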

Sequence | polyreactivity (PSR sort gate)
QVQLVESGGWLDQAGGSLRLSCAASGRTLGYYAMGWYRQAPGKERELVASIRYSGGSTYADSVKGRFTISRDNAKNTVYLQMNSLKPEDTAVYYCATGDSFRCYSALSRYDYWGQGTQVTVSS | high polyreactivity
QVQLVESGGWLVQAGGSLRLSCDASGITFYRNAVGWYRPAPGKERELVADITVSGGSTYYADSVKGRFTISRDNAKNTVYLQMNSLKPEDTAVYYCNAGLYQYDVWAYYIRYDYWGQGTQVTVSS | low polyreactivity
QVQLVESGLCLVQAGGSLRLSCAASGRIFRSYLMGWYRPAPGKERELVAAISNSGTRTYYADSVKGRFTISRDNAKNTVYLQKNSLKPEDTAVYYFITRRGRGSVDYDYWGQGSQVTVSS | high polyreactivity
QVQLVESGLGLVQAGGSLRLSCAASGSTFSNNAMGWYRQAPGKERELVASITRSGGSTYYADTVKGRFTISRDNAKNTVYLQMNSLKPEDTAVYYCNADGYYDYDYGEWGQGTQVTGSS | low polyreactivity
QVQLVESGLGLVQAGGSLRLSCAHSGSTLVYNDMRWYRQAPGKEREFVAAIRSNDGSTYYADSVNGRFTISRDNAKNTVYLQMNSLTPEDTAVYYCAATFSSAFAYYYWGQGTQVTVSS | low polyreactivity
QVQLVESGLGLVQAGGSLSLSCAASGIIFSWNSMGWYIEAPGKERELVAAITRGGGGTTYYADYVKGRFTISRDKAKNTVYLQMNSLKPEDTAVYYCAKAYEVRFEVDYCGQGTQVTVSS | low polyreactivity
QVQLVESGRGLDQAGGSLRLNCAASGSIFVRYAMGLNRQAPGKERELVAGITNSGGSTYYADSVKGRFTISRDNAMNTVYLQMNSLKPEDTAVYYCAADAGGWWYKYYYWGQGTQVTVSS | high polyreactivity
QVQLVESGRGLFKAGGSLRLSCAASGSIFDGNAMGWYRQAPGKERELVATMSWCGGSTYYADSVKGRFTISRDNSKNNVYLQMYSVNPEETAVYHCGKTPYRRYRYGGYTYSTYDYWGQGTQVTVSS | low polyreactivity
QVQLVESGRGLFQAGGSLRLSCAASGSTFYTNAMVWYRQAPGKEWELVATITSSGGITSYADSVKGRFTISRDNAKITVYLHMNSLKPEDTAVYYCAADFGASYDTHEYGYWGQGTQVTVSS | low polyreactivity
QVQLVESGRGLLQAGGSLRLSCAASGRIFTRYAMGWYRQAPGKERELVAAISSGGGNTYYADSVKGRFTISRYNAKNTVYLQMNILKPEDTAVYYCAALRSWRKTGGAQRYWYDYWGQGTQVTVLS | high polyreactivity
QVQLVESGRGLVLAGGSLRLSCAASGFIFLEYAMGWYRQAPGKERELVAASSSRGTRTYYADSVKGRFTISRDNAKNTGYLQMNSLKPEDTAVYYCAARSIAPTNLKTYLLDMDYWGQGTQVTVSS | high polyreactivity
QVQLVESGRGLVQAGGRLRLSCAASGFTFNRYTMGGYRQAPGKEREFVASITRSGGSTYYADSVKGRFTISRDNAKNTVYLQMNSLTPEDTAVYYCAPVYQYSSRYDHWGQGTQVTVSS | high polyreactivity
QVQLVESGRGLVQAGGSHRLSCAASGSTITYYTMGWYREAPGKERELVAAISGSGGRTYYADSVKGRFTISRDNAKNTVYLQMNSLKPEDTAVYYCAAVYQLSRYDYWGQGTQVTVSS | high polyreactivity
QVQLVESGRGLVQAGGSLRISCAASGRIFKNYAMGWYRQAPGKERELVADITWSDSDTSYADSVKGRFTITRDNAKNTVYLQMNCLKPEDTAVYYCAAETFDYADYIANGSAEYDYWGQGSQVTVSS | high polyreactivity
QVQLVESGRGLVQAGGSLRLSCAACGSIFVYNDRGCYRQAPGKERELVAAISASGGRTYSADSVKGRFTISRDNAKNTVYLQMNSLKPEDTAVYYCAKDWLWGPEYDYWGQGTQVTVSS | low polyreactivity
QVQLVESGRGLVQAGGSLRLSCAASGFIFLKFAKGWYRQAPGKERELVARITSTGGSTYYADSVKGRFTISRDNAKNTVYLQMNSLKPEDTAVYYCARDTVPSSDPWYYAWGGFEFDYWGQGTQVTVSS | low polyreactivity
QVQLVESGRGLVQAGGSLRLSCAASGFIFNLYAMGWYRQAPGKERELVAAISGGGSTYYAYSVKGRFTISRDNAKNTVYLQMISLKPEDNAVYYCAKKGGHRTYGYDSWGQGTQVTVSS | low polyreactivity
QVQLVESGRGLVQAGGSLRLSCAASGFIFSNAIGWYRQAPGKERELVAAISRSGGSTYYADSVKGRVTISRDNAKNTVSLQMNSLKPEDTAVEYCAARSYPRSPVRYDYWGQGTQVTVSS | high polyreactivity
QVQLVESGRGLVQAGGSLRLSCAASGFTFPNYAMGWYRQAPGKERELVASITRRAGSTNYADSVKGRFTISRDNAKNTVYLQMNSLKPEDTAVYYCNTVVLRYLYNYWGQGTQVTVSS | high polyreactivity
QVQLVESGRGLVQAGGSLRLSCAASGFTFVYYAMGWYRQAPGKERELVATISGNGGRTYYADSVKGRFTISRDNAKNTVYLQMNSLKPEDTAVYYCAALLYIRSVGYDYWGQGTQVTVSS | low polyreactivity
QVQLVESGRGLVQAGGSLRLSCAASGFTFYRYAMGWYRQAPGKERELVAAISWSGGSTYYADSVKGRFTISRDNAKNTVYLQMNSLKPEDTAVYYCAANRRFVGTGSTYYYWGQGTHVTVSS | high polyreactivity
QVQLVESGRGLVQAGGSLRLSCAASGGSIPYYAMGWYRQAPGKERELVAAINYSGGSTYYADSVKGRFTISRDNAKNSVYLQMNSLKPEDTAVDYCAARHRYHRGYGYWGQGTQVTLSS | high polyreactivity

Sequence | polyreactivity (PSR sort gate)
QVQLVESGRGLVQAGGSLRLSCAASGGTFRTYAMAWYRQAPGKERELVAAISVSGGRTYYADSVKGRFTISRDNAKNTVYLQMNSLKPEDTAVYYCAAYWHGFFKYWEMGYWGQGTQVTVSS | high polyreactivity
QVQLVESGRGLVQAGGSLRLSCAASGIFTRYAMGWYRQAPGKERELVAAISRGGGSTYYADSVKGSFTISRDNAKNTVYLQMNSLKPEDTAVYYCAADNSPRPYDYWGQGTQVTVSS | high polyreactivity
QVQLVESGRGLVQAGGSLRLSCAASGIIFTRYAMGWYRQAPGKERDLVAGISYSGSSTYYADSVKGRFTISRDNAKNTVYLQMNSLKPEDTAVYYCAAEFVTYYSSSKRAYYYWGQGTQVTVSS | high polyreactivity
QVQLVESGRGLVQAGGSLRLSCAASGLNFYDNMGWYRQAPGKERDLVAAISSSGGSTSYADSVKGRFTISRDNAKNTVYLQMNSLNPEDTAVYYCAAEWYPYPWGYGYWGQGTQVTVSS | low polyreactivity
QVQLVESGRGLVQAGGSLRLSCAASGLTFTPYAMGWYRQAPGKERELVAAITSGGRTYYADSVKGRFTSSRDNAKNTVYLQMNSLKPEDTAVYYCNADPEYSWWYYGLDYWGQGTQVTVSW | high polyreactivity
QVQLVESGRGLVQAGGSLRLSCAASGRIFDHYAMGWYRQAPGKERELVAAITWSGANTYYADSVKGRFTISRDNAKNTVYLQMNSLKPEDTAVYYCAAYNGAHSHFGYWGQGTQVTVSS | low polyreactivity
QVQLVESGRGLVQAGGSLRLSCAASGRIFGVYAMGWDRQAPGKERELVAAISGSTTRTYYADSVKGRFTISRDTAKNTVYLQMNSLKPEDTAVYYCAARSYTPSYKMDYWGQGTQVTVSS | high polyreactivity
QVQLVESGRGLVQAGGSLRLSCAASGRIFKAYAMGWYRQATGKERELVAAITRGGRTKYADSVKGRFTISRDNAKNTVYLQMNSLKPEDTAVYYCAAELPGGYLVDYDYWGHGTQVTVSS | high polyreactivity
QVQLVESGRGLVQAGGSLRLSCAASGRIGKYAMGWYRQAPGKERELVATISSTGTTNYADSVKGRFTISRDNAKNTVYLQMNSLKPDDTAVYYCAAVRHKEYDYWGQGTQVTVSS | high polyreactivity
QVQLVESGRGLVQAGGSLRLSCAASGRISVFNAMGWYRQAPGKERELVAAISWSGGSTYYADSVKGRFTISRDNAKNTVYLQMNSLKPEDTAVYYCAARGHYQYYWGQGTQVTVSS | low polyreactivity
QVQLVESGRGLVQAGGSLRLSCAASGRTFDFNAMGWYRQAPGKERELVAAISSDSDTYYADSVKGRFTISRDNAKNTVFLQMNSLKPEDTAVYYCAAEHQYPYGWYYYWGQGTQVTVSS | high polyreactivity
QVQLVESGRGLVQAGGSLRLSCAASGRTFYGYARGCYRQAPGKERELVARISSGGGTYYADSVKGRFIISRDNAKYTVYLQMNSLKPEDTAVYYCNAEVYRWSGSYTGWDSWHDDWGQGTQVTVSS | low polyreactivity
QVQLVESGRGLVQAGGSLRLSCAASGRTFYYYTMGWYRQAPGKERELVAAISYSGGSTSYADSVKGRFTISRYNAKNTVYLQMNRLKPEDTAVYYCNAPYKYYTQRRYHYDYCGQGTQVTVSS | high polyreactivity
QVQLVESGRGLVQAGGSLRLSCAASGRTLSQYAMGWYRQAPGKERELVAAITRSGGSTYYADSVTGRFTISRDISKNTVYLQMNSLKRDDTAVYYCNITLYTTYDYWGQGTQVTVSS | low polyreactivity
QVQLVESGRGLVQAGGSLRLSCAASGRTVTNNVLGWYRQAPGKEREFVASISSGGGSTYYADSVKGRFTISRDNANNTVYVQMNSLKPEDTAVYYCAAGYWWRYALYGYWGQGTQVTVSS | low polyreactivity
QVQLVESGRGLVQAGGSLRLSCAASGSIFKYYAMGWYRQAPGKERELVAAITSGGSTSYADSVKGRFTISRDNAKNTVYLQMNSLKPEDTAVYYCAAELRSWRSYGSVWRWYYYWGQGTQVTVSS | high polyreactivity
QVQLVESGRGLVQAGGSLRLSCAASGSIFPTYALGCYRQAPGKERELVAAISSGENTYYADSVKGRFTISRDNAKNTVSLQMNSLKPEDTAVYFCAAADNYGIRDLYASDGTQNYYWGQGTQVTVSS | low polyreactivity
QVQLVESGRGLVQAGGSLRLSCAASGSIFYDNAMGWYRQAPGKDRELVAAISYSGDSTYYADSVKGRFTISHDNAKNTVYLQMNSLKPEDTAVYYCAADYYGIYYSGTSEYWGQGTQVTVSS | low polyreactivity
QVQLVESGRGLVQAGGSLRLSCAASGSTFNINAMGWYRQAPGKERELVAAISWSGDITYYADSVKGRFTISRDNAKNTVYLQMNSLKPEDTAVYYCNTDDPGNYWYAEYDYWGQGTQVTVSS | low polyreactivity
QVQLVESGRGLVQAGGSLRLSCAASGSTFVANDMGWYSQAPGKERELVAAISWSDATTYYADSVKGRGTISRDNAKNTVYLQMNSRKPEDNAVYDCAATRDTNNMDYWGHGTQVTVSS | low polyreactivity
QVQLVESGRGLVQAGGSLRLSCAASGVTFNVYAMGWYREAPGKVRELVAAISYNGGRTYYADSVKGRFTISRDNAKNTVYLQINSLKPEDTAVFYCAALYYFTPSDGRRYDYWGQCTQVTVSS | high polyreactivity
